From patent KR20190044006A (dated 2019) come the findings set out here.

This experiment concerns the target 재조합 MERS-CoV S1-RBD 단백질 (MERS-CoV EMC/2012, UniProt K9N5Q8 358-606). As to the kind of experiment: ELISA screening of hybridoma supernatants on RBD antigen. Background: An ELISA detects its analyte on a solid surface through an enzyme-linked reagent.

B1: 단일 클론 항체 AT2F7 (antibody, V domains shown)
VH: EVKLVESGGGLVKPGGSLKLSCAASGFTFSSYTMSWVRQTPEKRLEWVATISSGGSYTYYPDSVKGRFTISRDNAKNTLYLQMSSLKSEDTAMYYCTRDLYDGYFYYAMDYWGQGTSVTVSS
VL: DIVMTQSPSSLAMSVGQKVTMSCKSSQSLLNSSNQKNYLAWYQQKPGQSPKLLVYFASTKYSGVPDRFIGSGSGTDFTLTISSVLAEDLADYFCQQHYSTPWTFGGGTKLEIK
Consider B1, for which the binding result is “binds”.
